Source: the Human Domainome abundance scans (Beltran et al. 2025)
± gives the uncertainty stated by the source.

B1: Transcription elongation regulator 1-like protein, residues 448 to 504; numbered along this chain, Q5VWI1 (parent)
chain: LPLEERVTHFRDMLLERGVSAFSTWEKELHKIVFDPRYLLLNSEERKQIFEQFVKTR

Variants of: B1
Test: abundance fitness (aPCA) (normalised: wild type 0, dead -1); higher = more abundant; growth selection in yeast, the domain comes from the species named
Details: Homo sapiens

Variant	abundance fitness
LPLEERVTHFRDMLDERGVSAFSTWEKELHKIVFDPRYLLLNSEERKQIFEQFVKTR [L15D]	-0.142 ± 0.47
LPLEERVTHFRDMLHERGVSAFSTWEKELHKIVFDPRYLLLNSEERKQIFEQFVKTR [L15H]	-0.352 ± 0.37
LPLEERVTHFRDMLRERGVSAFSTWEKELHKIVFDPRYLLLNSEERKQIFEQFVKTR [L15R]	0.139 ± 0.088
LPLEERVTHFRDMLIERGVSAFSTWEKELHKIVFDPRYLLLNSEERKQIFEQFVKTR [L15I]	-0.315 ± 0.32
LPLEERVTHFRDMLKERGVSAFSTWEKELHKIVFDPRYLLLNSEERKQIFEQFVKTR [L15K]	-0.161 ± 0.26
LPLEERVTHFRDMLCERGVSAFSTWEKELHKIVFDPRYLLLNSEERKQIFEQFVKTR [L15C]	-0.454 ± 0.17
LPLEERVTHFRDMLWERGVSAFSTWEKELHKIVFDPRYLLLNSEERKQIFEQFVKTR [L15W]	-0.406 ± 0.15
LPLEERVTHFRDMLFERGVSAFSTWEKELHKIVFDPRYLLLNSEERKQIFEQFVKTR [L15F]	-0.325 ± 0.38
LPLEERVTHFRDMLLEFGVSAFSTWEKELHKIVFDPRYLLLNSEERKQIFEQFVKTR [R17F]	-0.368 ± 0.47
LPLEERVTHFRDMLLEIGVSAFSTWEKELHKIVFDPRYLLLNSEERKQIFEQFVKTR [R17I]	-0.853 ± 0.23
LPLEERVTHFRDMLLEHGVSAFSTWEKELHKIVFDPRYLLLNSEERKQIFEQFVKTR [R17H]	-0.02 ± 0.13
LPLEERVTHFRDMLLEGGVSAFSTWEKELHKIVFDPRYLLLNSEERKQIFEQFVKTR [R17G]	-0.978 ± 0.25
LPLEERVTHFRDMLLECGVSAFSTWEKELHKIVFDPRYLLLNSEERKQIFEQFVKTR [R17C]	-0.151 ± 0.17
LPLEERVTHFRDMLLEAGVSAFSTWEKELHKIVFDPRYLLLNSEERKQIFEQFVKTR [R17A]	-0.465 ± 0.39
LPLEERVTHFRDMLLEEGVSAFSTWEKELHKIVFDPRYLLLNSEERKQIFEQFVKTR [R17E]	-0.479 ± 0.43
LPLEERVTHFRDMLLFRGVSAFSTWEKELHKIVFDPRYLLLNSEERKQIFEQFVKTR [E16F]	-0.568 ± 0.24
LPLEERVTHFRDMLLNRGVSAFSTWEKELHKIVFDPRYLLLNSEERKQIFEQFVKTR [E16N]	-0.657 ± 0.36
LPLEERVTHFRDMLLKRGVSAFSTWEKELHKIVFDPRYLLLNSEERKQIFEQFVKTR [E16K]	0.226 ± 0.24
LPLEERVTHFRDMLLGRGVSAFSTWEKELHKIVFDPRYLLLNSEERKQIFEQFVKTR [E16G]	-0.868 ± 0.34
LPLEERVTHFRDMLLTRGVSAFSTWEKELHKIVFDPRYLLLNSEERKQIFEQFVKTR [E16T]	-0.851 ± 0.16
LPLEERVTHFRDMLLCRGVSAFSTWEKELHKIVFDPRYLLLNSEERKQIFEQFVKTR [E16C]	-0.632 ± 0.22
LPLEERVTHFRDMLLARGVSAFSTWEKELHKIVFDPRYLLLNSEERKQIFEQFVKTR [E16A]	-0.46 ± 0.27
LPLEERVTHFRDMLLMRGVSAFSTWEKELHKIVFDPRYLLLNSEERKQIFEQFVKTR [E16M]	-0.438 ± 0.16
LPLEERVTHFRDMLLIRGVSAFSTWEKELHKIVFDPRYLLLNSEERKQIFEQFVKTR [E16I]	-0.976 ± 0.31

Variant	abundance fitness
LPLEERVTHFRDMLLSRGVSAFSTWEKELHKIVFDPRYLLLNSEERKQIFEQFVKTR [E16S]	-0.797 ± 0.17
LPLEERVTHFRDMLLLRGVSAFSTWEKELHKIVFDPRYLLLNSEERKQIFEQFVKTR [E16L]	-1.01 ± 0.49
LPLEERVTHFRDMLLQRGVSAFSTWEKELHKIVFDPRYLLLNSEERKQIFEQFVKTR [E16Q]	0.176 ± 0.12
LPLEERVTHFRDMLLRRGVSAFSTWEKELHKIVFDPRYLLLNSEERKQIFEQFVKTR [E16R]	-1.09 ± 0.35
LPLEERVTHFRDMLLYRGVSAFSTWEKELHKIVFDPRYLLLNSEERKQIFEQFVKTR [E16Y]	-0.882 ± 0.24
LPLEERVTHFRDMLLVRGVSAFSTWEKELHKIVFDPRYLLLNSEERKQIFEQFVKTR [E16V]	-0.666 ± 0.24
LPLEERVTHFRDMLLWRGVSAFSTWEKELHKIVFDPRYLLLNSEERKQIFEQFVKTR [E16W]	-0.646 ± 0.3
LPLEERVTHFRQMLLERGVSAFSTWEKELHKIVFDPRYLLLNSEERKQIFEQFVKTR [D12Q]	-0.223 ± 0.24
LPLEERVTHFRSMLLERGVSAFSTWEKELHKIVFDPRYLLLNSEERKQIFEQFVKTR [D12S]	-0.237 ± 0.098
LPLEERVTHFRMMLLERGVSAFSTWEKELHKIVFDPRYLLLNSEERKQIFEQFVKTR [D12M]	0.191 ± 0.12
LPLEERVTHFRKMLLERGVSAFSTWEKELHKIVFDPRYLLLNSEERKQIFEQFVKTR [D12K]	-0.119 ± 0.1
LPLEERVTHFRRMLLERGVSAFSTWEKELHKIVFDPRYLLLNSEERKQIFEQFVKTR [D12R]	-0.283 ± 0.14
LPLEERVTHFRWMLLERGVSAFSTWEKELHKIVFDPRYLLLNSEERKQIFEQFVKTR [D12W]	-0.059 ± 0.16
LPLEERVTHFRAMLLERGVSAFSTWEKELHKIVFDPRYLLLNSEERKQIFEQFVKTR [D12A]	-0.335 ± 0.33
LPLEERVTHFRPMLLERGVSAFSTWEKELHKIVFDPRYLLLNSEERKQIFEQFVKTR [D12P]	-0.83 ± 0.21
LPLEERVTHFRCMLLERGVSAFSTWEKELHKIVFDPRYLLLNSEERKQIFEQFVKTR [D12C]	-0.578 ± 0.45
LPLEERVTHFRVMLLERGVSAFSTWEKELHKIVFDPRYLLLNSEERKQIFEQFVKTR [D12V]	-0.641 ± 0.26
LPLEERVTHFRGMLLERGVSAFSTWEKELHKIVFDPRYLLLNSEERKQIFEQFVKTR [D12G]	-0.381 ± 0.19
LPLEERVTHFREMLLERGVSAFSTWEKELHKIVFDPRYLLLNSEERKQIFEQFVKTR [D12E]	0.274 ± 0.19
LPLEERVTHFRNMLLERGVSAFSTWEKELHKIVFDPRYLLLNSEERKQIFEQFVKTR [D12N]	-0.26 ± 0.26
LPLEERVTHFRFMLLERGVSAFSTWEKELHKIVFDPRYLLLNSEERKQIFEQFVKTR [D12F]	-0.624 ± 0.45
LPLEERVTHFRYMLLERGVSAFSTWEKELHKIVFDPRYLLLNSEERKQIFEQFVKTR [D12Y]	-0.112 ± 0.34
LPLEERVTHFRIMLLERGVSAFSTWEKELHKIVFDPRYLLLNSEERKQIFEQFVKTR [D12I]	-0.177 ± 0.33
